According to US20200317817A1 (XOMA US, published 2020):

Key:
[1] = target: T1, human PTH1R overexpressed on CHO cells (human, UniProt Q03431 27-593); experiment: flow cytometry on CHO cells, 24 hr at 4 C
T1 construct: whole, on cells; also called CHO human PTH1R; CHO Human PTHR
T1 sequence (looked up): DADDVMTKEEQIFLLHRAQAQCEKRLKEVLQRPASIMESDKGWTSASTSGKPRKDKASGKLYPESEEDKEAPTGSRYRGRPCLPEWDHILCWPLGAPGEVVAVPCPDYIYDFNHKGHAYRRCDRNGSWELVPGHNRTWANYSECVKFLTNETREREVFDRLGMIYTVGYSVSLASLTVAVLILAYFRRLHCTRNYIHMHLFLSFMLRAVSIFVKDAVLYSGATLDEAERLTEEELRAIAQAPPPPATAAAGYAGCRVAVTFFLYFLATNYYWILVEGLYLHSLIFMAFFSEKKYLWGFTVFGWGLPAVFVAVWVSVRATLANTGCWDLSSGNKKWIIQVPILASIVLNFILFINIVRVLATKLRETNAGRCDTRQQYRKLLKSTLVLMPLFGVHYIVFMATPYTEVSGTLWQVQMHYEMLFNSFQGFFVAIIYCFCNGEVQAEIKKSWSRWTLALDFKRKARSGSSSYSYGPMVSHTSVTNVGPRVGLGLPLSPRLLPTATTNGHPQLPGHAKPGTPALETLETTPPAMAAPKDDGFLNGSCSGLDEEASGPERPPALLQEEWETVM
Procedure: (§1) To characterize antibody binding to PTH1R, cells were labeled with either CellTrace™ CFSE or CellTrace™ Violet. Unlabeled CHOK1 parent, CHO human PTH1R labeled with CellTrace™CFSE, and CHO mouse PTH1R labeled with CellTrace™Violet were pooled together and stained with increasing concentrations of antibody. Antibodies were incubated for 24 hr at 4° C. followed by two washes with FACS Buffer (0.5% BSA, 0.1% NaN3 in DPBS). Cells were then incubated with Allophycocyanin (APC) AffiniPure F(ab′)₂ Fragment Goat Anti-Human IgG (H+L) (Jackson ImmunoResearch, West Grove, Pa.) for 20 minutes at 4° C. Followed by two washes, cells were resuspended in FACS Buffer. Samples were acquired using BD Cytometer (BD Biosciences, San Jose, Calif.) and data were analyzed using FlowJo (FlowJo, LLC, Ashland, Oreg.) and Prism (GraphPad Software, La Jolla, Calif.).

[2] = target: T2, mouse PTH1R overexpressed on CHO cells (mouse, UniProt P41593 27-591); experiment: flow cytometry on CHO cells, 24 hr at 4 C
T2 construct: whole, on cells; also called CHO mouse PTH1R; CHO Mouse PTHR
T2 sequence (looked up): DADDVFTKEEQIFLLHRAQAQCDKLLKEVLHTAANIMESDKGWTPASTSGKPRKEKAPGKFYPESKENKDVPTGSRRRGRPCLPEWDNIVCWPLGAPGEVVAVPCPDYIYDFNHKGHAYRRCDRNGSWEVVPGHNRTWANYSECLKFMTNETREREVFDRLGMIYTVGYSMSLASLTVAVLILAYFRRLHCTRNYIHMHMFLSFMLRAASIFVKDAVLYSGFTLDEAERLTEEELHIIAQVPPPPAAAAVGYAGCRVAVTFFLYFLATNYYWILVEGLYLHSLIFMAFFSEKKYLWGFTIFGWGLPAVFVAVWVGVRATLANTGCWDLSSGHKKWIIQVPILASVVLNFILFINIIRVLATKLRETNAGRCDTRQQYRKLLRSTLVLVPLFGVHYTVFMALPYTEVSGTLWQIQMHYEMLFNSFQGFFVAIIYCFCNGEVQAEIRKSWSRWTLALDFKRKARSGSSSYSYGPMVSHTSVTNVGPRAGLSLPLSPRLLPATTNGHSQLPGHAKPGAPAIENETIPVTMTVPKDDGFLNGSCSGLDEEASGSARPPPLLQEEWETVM
Procedure: as §1

[3] = target: T1, human PTH1R overexpressed on CHO cells; experiment: cell-based or functional assay
[4] = target: T3, rat PTH1R on UMR106 cells (rat, UniProt P25961 27-591); experiment: cell-based or functional assay
T3 sequence (looked up): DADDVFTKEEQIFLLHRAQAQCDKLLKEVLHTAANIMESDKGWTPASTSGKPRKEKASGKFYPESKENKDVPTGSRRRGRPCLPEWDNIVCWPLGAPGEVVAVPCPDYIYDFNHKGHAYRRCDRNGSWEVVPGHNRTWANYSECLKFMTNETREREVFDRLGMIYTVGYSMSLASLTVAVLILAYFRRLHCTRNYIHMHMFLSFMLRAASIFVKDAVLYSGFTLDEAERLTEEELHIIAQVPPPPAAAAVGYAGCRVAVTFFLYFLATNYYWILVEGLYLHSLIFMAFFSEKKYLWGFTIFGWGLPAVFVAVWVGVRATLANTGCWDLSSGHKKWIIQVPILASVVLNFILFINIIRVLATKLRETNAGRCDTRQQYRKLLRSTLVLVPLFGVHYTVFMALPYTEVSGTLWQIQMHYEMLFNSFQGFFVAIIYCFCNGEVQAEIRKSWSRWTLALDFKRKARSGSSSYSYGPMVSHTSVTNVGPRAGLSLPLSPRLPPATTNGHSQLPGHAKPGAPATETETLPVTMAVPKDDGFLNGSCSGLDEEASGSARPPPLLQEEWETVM

[5] = target: T2, mouse PTH1R overexpressed on CHO cells; experiment: cell-based or functional assay
[6] = target: T4, human PTH1R on Saos-2 cells (endogenous) (human, UniProt Q03431 27-593); experiment: cell-based or functional assay
T4 sequence (looked up): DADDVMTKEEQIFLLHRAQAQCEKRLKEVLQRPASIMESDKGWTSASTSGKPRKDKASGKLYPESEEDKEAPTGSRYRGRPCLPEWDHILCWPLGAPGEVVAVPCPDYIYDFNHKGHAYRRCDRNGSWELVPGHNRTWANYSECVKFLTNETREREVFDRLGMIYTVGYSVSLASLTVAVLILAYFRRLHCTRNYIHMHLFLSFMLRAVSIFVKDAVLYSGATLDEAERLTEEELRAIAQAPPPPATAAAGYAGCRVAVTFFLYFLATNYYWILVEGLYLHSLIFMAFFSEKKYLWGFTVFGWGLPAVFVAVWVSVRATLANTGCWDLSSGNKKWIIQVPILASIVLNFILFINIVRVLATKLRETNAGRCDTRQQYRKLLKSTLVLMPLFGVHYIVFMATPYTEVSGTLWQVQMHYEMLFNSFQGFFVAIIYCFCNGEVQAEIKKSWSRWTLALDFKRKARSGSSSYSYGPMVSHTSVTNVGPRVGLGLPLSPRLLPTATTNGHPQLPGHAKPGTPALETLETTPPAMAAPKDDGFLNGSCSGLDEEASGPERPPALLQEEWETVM

[7] = target: T1, human PTH1R overexpressed on CHO cells; experiment: flow cytometry on CHO cells, with 1 uM PTH as competitor
Procedure: as §1

[8] = target: T2, mouse PTH1R overexpressed on CHO cells; experiment: as above
Procedure: as §1

[9] = target: T1, human PTH1R overexpressed on CHO cells; experiment: flow cytometry on CHO cells, antibody alone
Procedure: as §1

[10] = target: T2, mouse PTH1R overexpressed on CHO cells; experiment: flow cytometry on CHO cells, antibody alone
Procedure: as §1

Binder	EC50 [1] [nM]	EC50 [2] [nM]	EC50 of PTH(1-34), cAMP assay, with 267 nM IgG [3] [nM]	EC50 of PTH(1-34), cAMP assay, with 267 nM IgG [4] [nM]	EC50 of PTH(1-34), cAMP assay, with 267 nM IgG [5] [nM]	EC50 of PTH(1-34), cAMP assay, with 267 nM IgG [6] [nM]	EC50 of PTHrP(1-34), cAMP assay, with 267 nM IgG [6] [nM]	EC50 [7] [nM]	EC50 [8] [nM]	EC50 [9] [nM]	EC50 [10] [nM]	EC50 of PTHrP(1-34), cAMP assay, with 267 nM IgG [4] [nM]	further results
XPA.85.341 (antibody, V domains shown, Light-chain-shuffled variant of XPA.85.017) VH: EVQLVETGGGVVRPGGSLRLSCAASGFTFSSSAMSWVRQTPGKELQWVSAITPGGEGTYYADVVKGRFTISRDNSKDTLYLQMDSLRAEDTAVYYCARDLYGSYGDAFDIWGQGTLVTVSS VL: SYELTQPSSVSVSPGQTASITCSGDKLGEKYASWYQQKPGQSPVLVMFEDTKRPSGIPERFSGSNSGNTATLTISGTQAEDEADYYCQAWDSSWVFGGGTQLTVL	0.202	0.343	0.404	13.7	2.15	38.1	63	5.39	0.778	0.196	0.337		
XPA.85.339 (antibody, V domains shown, Light-chain-shuffled variant of XPA.85.017) VH: EVQLVETGGGVVRPGGSLRLSCAASGFTFSSSAMSWVRQTPGKELQWVSAITPGGEGTYYADVVKGRFTISRDNSKDTLYLQMDSLRAEDTAVYYCARDLYGSYGDAFDIWGQGTLVTVSS VL: SYELTQPPSVSVAPGQTATITCSGDRLGDKFISWYQQKPGQSPLLVIFEDNERPSRIPERFSGSNSGNSATLTISGTQAVDEADYYCQAWDSSWVFGGGTQLTVL	0.142	0.234	0.613	7.9	1.95	24.8	31.4	2.98	0.327	0.0984	0.258	3.48	
XPA.85.287 (antibody, V domains shown, also called Ab287) VH: EVQLVETGGGVVRPGGSLRLSCAASGFTFSSSAMSWVRQTPGKELQWVSAITPGGEGTYYADVVKGRFTISRDNSKDTLYLQMDSLRAEDTAVYYCARDLYGSYGDAFDIWGQGTLVTVSS VL: SYVLTQPPSVSVAPGQTARITCSGDKLGDRYVSWYQQKPGQSPVLVMFEDTGRPAGIPERFSGSNSGNTATLTISGTQAEDEADYYCQAWGTSWVFGGGTQLTVL	0.044	0.216	0.908	66.7	13.6	78.6	62.2	1.86	0.206	0.0909	0.281	11.6	EC50 of PTHrP(1-34), cAMP assay, with 267 nM IgG [3]: 52.7 nM; fold-shift in PTH(1-34) EC50 vs vehicle only, cAMP assay [3]: 29 fold; fold-shift in PTHrP(1-34) EC50 vs vehicle only, cAMP assay [3]: > 100 fold; fold-shift in PTH(1-34) EC50 vs vehicle only, cAMP assay [4]: > 100 fold; fold-shift in PTHrP(1-34) EC50 vs vehicle only, cAMP assay [4]: 35 fold; EC50 of PTHrP(1-34), cAMP assay, with 267 nM IgG [5]: 5.77 nM; fold-shift in PTH(1-34) EC50 vs vehicle only, cAMP assay [5]: > 100 fold; fold-shift in PTHrP(1-34) EC50 vs vehicle only, cAMP assay [5]: > 100 fold; fold-shift in PTH(1-34) EC50 vs vehicle only, cAMP assay [6]: > 100 fold; fold-shift in PTHrP(1-34) EC50 vs vehicle only, cAMP assay [6]: 89 fold
